According to doi:10.1101/2025.06.24.661301, “Homodimerized Arpins: Binding to Arp2/3 Complexes with Positive Synergy to Inhibit Lamellipodia-Dependent Tumor Metastasis” (bioRxiv, 2025):
No end group written: not given here.

Target: Arp2/3 complex (human, UniProt P61158 1-418; P61160 1-394; O15143 1-372)
Test: SPR; Biacore 8K, 25°C, PBS with 0.05% Tween-20; Arp2/3 immobilised on CM5 chip; analytes injected at 30 μL/min, 60 s association, 60 s dissociation; Arpin^FM 3.125-200 μM, ArpinCT, GST-aCT and D-aCT 0.625-40 μM, AI-designed variants 0.156-10 μM
Conditions: both partners purified

Kd: 5.5 µM
B1: D-aCT (dual-tailed peptide of two Arpin CTs linked at their N-termini by BM(PEG)3) (peptide)
chain: CSSGGSSGGSSGGSSGGGASWTDNIMAQKSSKGAAAEIREQGDGAEDEEWDD
modifications: not fully specified (residue 1); also: dimer: N-terminal Cys linked to N-terminal Cys of second chain by BM(PEG)3
